Test results published in patent US12036274B2, “Recombinant MPT protein derived from MPT63 and MPT64 and use thereof” (priority 2021, dated 2024).

T1: p47phox (Homo sapiens, UniProt P14598)
T1 sequence (P14598 1-390): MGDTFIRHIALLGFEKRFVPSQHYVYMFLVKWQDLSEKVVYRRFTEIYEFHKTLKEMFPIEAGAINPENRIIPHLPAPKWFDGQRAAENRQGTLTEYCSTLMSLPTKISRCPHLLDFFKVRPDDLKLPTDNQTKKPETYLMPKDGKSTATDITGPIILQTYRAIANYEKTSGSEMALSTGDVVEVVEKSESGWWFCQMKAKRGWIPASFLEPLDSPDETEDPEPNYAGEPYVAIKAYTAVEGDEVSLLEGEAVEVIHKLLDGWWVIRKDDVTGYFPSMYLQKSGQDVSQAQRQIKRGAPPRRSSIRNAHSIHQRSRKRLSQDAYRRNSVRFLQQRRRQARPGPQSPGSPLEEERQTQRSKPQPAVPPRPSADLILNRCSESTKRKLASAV

T2: TBK1 and HK2 (Homo sapiens, UniProt Q9UHD2)
T2 construct: endogenous in cells; host or cells: THP-1
T2 sequence (Q9UHD2 1-729): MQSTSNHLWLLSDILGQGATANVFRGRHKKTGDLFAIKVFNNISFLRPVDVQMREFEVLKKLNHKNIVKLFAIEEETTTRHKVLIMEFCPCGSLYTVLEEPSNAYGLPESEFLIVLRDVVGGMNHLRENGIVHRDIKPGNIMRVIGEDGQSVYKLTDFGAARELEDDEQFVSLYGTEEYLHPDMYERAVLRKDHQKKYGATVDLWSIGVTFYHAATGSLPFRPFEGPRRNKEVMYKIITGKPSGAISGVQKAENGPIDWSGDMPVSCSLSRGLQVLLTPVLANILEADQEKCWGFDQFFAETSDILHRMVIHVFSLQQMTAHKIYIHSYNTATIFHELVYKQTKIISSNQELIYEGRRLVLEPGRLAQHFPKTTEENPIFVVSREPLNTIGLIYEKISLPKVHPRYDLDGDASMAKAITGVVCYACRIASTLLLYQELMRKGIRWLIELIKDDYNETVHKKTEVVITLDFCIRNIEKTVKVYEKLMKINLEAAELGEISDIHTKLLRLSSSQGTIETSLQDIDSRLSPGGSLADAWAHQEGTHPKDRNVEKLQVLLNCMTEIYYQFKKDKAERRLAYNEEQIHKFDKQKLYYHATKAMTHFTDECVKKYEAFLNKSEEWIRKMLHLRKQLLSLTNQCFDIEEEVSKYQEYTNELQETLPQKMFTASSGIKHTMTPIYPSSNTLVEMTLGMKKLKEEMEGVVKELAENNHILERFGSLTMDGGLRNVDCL

B1: MPT63: secreted antigen of Mycobacterium tuberculosis, recombinant, purified with the 6×His bacterial expression system (protein)
chain: AYPITGKLGSELTMTDTVGQVVLGWKVSDLKSSTAVIPGYPVAGQVWEATATVNAIRGSVTPAVSQFNARTADGINYRVLWQAAGPDTISGATIPQGEQSTGKIYFDVTGPSPTIVAMNNGMEDLLIWEP
modifications: left off: small tags and cut ends
notes: secreted antigen of Mycobacterium tuberculosis, recombinant, purified with the 6×His bacterial expression system
B2: MPT64: secreted antigen of Mycobacterium tuberculosis, recombinant, produced in a bacterial expression system (protein)
chain: APKTYCEELKGTDTGQACQIQMSDPAYNINISLPSYYPDQKSLENYIAQTRDKFLSAATSSTPREAPYELNITSATYQSAIPPRGTQAVVLKVYQNAGGTHPTTTYKAFDWDQAYRKPITYDTLWQADTDPLPVVFPIVQGELSKQTGQQVSIAPNAGLDPVNYQNFAVTNDGVIFFFNPGELLPEAAGPTQVLVPRSAIDSMLA
modifications: left off: small tags and cut ends
notes: secreted antigen of Mycobacterium tuberculosis, recombinant, produced in a bacterial expression system

Experiments:
TBK1 and p47phox = assay: Co-immunoprecipitation of rMPT63 in THP-1 cells; format: cell-based, human; conditions: 5 μg/ml
TBK1 = TBK1 (Homo sapiens, UniProt Q9UHD2); conditions: read-out: Kd of interaction with TBK1; fluorescently labeled protein titrated with unlabeled TBK1, curve fitting, 25° C., pH 7.4
Description: (§1) The interaction of MPT63-TBK1 with p47phox and the interaction of MPT64-TBK1 with HK2 were monitored using a Fluoromax-4 spectrofluorometer (HORIBA Scientific) which was performed as previously described (Guo et al., 2005). MPT63 and MPT64, respectively, were labeled with BODIPY FL Iodoacetamide (ThermoFisher Scientific) according to the manufacturer's instructions. The labeled MPT63 or MPT64 was excited at 350 nm and detected through a cutoff filter at 512 nm. The fluorescently labeled MPT63 or MPT64 was titrated with unlabeled TBK1, p47phox or HK2 for kinetic analysis. The excitation and emission wavelengths were 498 mm and 518 nm, respectively. The obtained data were verified using the Grafit program, and all fluorescence measurements were performed at 25° C. in 30 mM Tris, pH 7.4, 150 mM NaCl and 1 mM dithiothryitol.

p47phox = biological target: T1, p47phox; conditions: read-out: Kd of interaction with p47phox; fluorescently labeled MPT63 titrated with unlabeled p47phox, 25° C., pH 7.4
Description: as §1

TBK1 and HK2 = biological target: T2, TBK1 and HK2; assay: Co-immunoprecipitation of rMPT64 in THP-1 cells; format: cell-based; conditions: 5 μg/ml
HK2 = HK2 (Homo sapiens, UniProt P52789)
Chain of HK2 (P52789 whole entry): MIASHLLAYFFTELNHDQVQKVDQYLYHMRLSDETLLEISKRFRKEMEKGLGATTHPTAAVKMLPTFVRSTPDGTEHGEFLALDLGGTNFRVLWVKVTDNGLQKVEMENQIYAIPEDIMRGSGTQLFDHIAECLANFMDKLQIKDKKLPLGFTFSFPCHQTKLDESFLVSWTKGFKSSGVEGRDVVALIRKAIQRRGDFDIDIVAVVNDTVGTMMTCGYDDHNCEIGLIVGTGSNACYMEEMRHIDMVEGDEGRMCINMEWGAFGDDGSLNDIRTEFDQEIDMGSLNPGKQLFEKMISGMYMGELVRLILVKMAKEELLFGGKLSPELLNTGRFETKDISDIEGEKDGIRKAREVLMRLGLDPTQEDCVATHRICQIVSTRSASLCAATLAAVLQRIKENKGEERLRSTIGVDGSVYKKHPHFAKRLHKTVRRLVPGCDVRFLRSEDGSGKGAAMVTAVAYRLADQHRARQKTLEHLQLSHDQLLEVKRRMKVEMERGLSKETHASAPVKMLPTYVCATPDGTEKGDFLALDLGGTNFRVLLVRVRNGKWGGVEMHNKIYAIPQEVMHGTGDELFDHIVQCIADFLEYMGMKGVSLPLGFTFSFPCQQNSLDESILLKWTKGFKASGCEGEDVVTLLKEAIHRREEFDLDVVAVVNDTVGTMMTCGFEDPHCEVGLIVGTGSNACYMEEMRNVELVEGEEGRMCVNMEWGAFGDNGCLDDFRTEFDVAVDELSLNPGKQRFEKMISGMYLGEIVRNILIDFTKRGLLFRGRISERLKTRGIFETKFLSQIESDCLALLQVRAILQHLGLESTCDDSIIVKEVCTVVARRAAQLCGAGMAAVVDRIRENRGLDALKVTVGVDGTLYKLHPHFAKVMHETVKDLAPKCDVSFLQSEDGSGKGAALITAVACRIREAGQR
Description: as §1

Row | Molecule | endogenous interaction with TBK1 and p47phox (TBK1 and p47phox) | Kd (TBK1) [nM] | Kd (p47phox) [nM] | interaction with phosphorylated TBK1 (S172) (TBK1 and HK2) | Kd (HK2) [nM]
1 | B1 | endogenously interacted | 178 | 345 |  | 
2 | B2 |  | 193 |  | interacts | 134
